Results taken from the supplement of paper PMC7877785.
± gives the uncertainty stated by the source.

Test: self-splicing fitness, log relative to wild type (ln ratio); higher = more splicing; Tetrahymena group I intron in knt gene, E. coli kanamycin selection, DiMSum; sequences stand for … in CUCUCU…GGAGGGAAAAGUUAUCAGGCAUGCACCUGGUAGCUAGUCUUUAAACCAAUAGAUUGCAUCGGUUUAAAAGGCAAGACCGUCAAAUUGCGGGAAAGGGGUCAACAGCCGUUCAGUACCAAGUCUCAGGGGAAACUUUGAGAUGGCCUUGCAAAGGGUAUGGUAAUAAGCUGACGGACAUGGUCCUAACCACGCAGCCAAGUCCUAAGUCAACAGAUCUUCUGUUGAUAUGGAUGCAGUUCACAGACUAAAUGUCGGUCGGGGAAGAUGUAUUCUUCUCAUAAGAUAUAGUCGGACCUCUCCUUAAUGGGAGCUAGCGGAUGAAGUGAUGCAACACUGGAGCCGCUGGGAACUAAUUUGUAUGCGAAAGUAUAUUGAUUAGUUUUGGAGUACUCGUGGUCG
Procedure, shortened: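 Library with all eight P1ex-region intron nucleotides randomised, intron inside the knt kanamycin-resistance gene on pET-22b(+), in E. coli BL21(DE3). Cells grew overnight at 37°C or 30°C on LB agar with or without 25 μg/mL kanamycin (plus 100 μg/mL carbenicillin, 50 μM IPTG, 0.2% rhamnose), in six replicate transformations. Pooled colonies were amplicon-sequenced on Illumina HiSeq 2500. DiMSum fitness is the error-weighted combination of wild-type-normalised replicate fold changes, kanamycin versus none.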

| Sequence | self-splicing fitness (ln) (30 °C) | self-splicing fitness (ln) (37 °C) |
| --- | --- | --- |
| AUGCAGCAAUAUUACGCUUG | -3.06 ± 0.12 | -2.85 ± 0.18 |
| AUGCAGCAAUAUUACGCUUU | -2.72 ± 0.11 | -1.75 ± 0.11 |
| AUGCAGCAAUAUUACGGAAA | -1.86 ± 0.23 | -2.17 ± 0.28 |
| AUGCAGCAAUAUUACGGUAU | -4.16 ± 0.27 | -1.42 ± 0.14 |
| AUGCAGCAAUAUUACGGUCA | -1.2 ± 0.14 | -1.08 ± 0.14 |
| AUGCAGCAAUAUUACGUAGG | -1.72 ± 0.082 | -1.16 ± 0.11 |
| AUGCAGCAAUAUUACGUCGU | -0.894 ± 0.11 | -1.66 ± 0.13 |
| AUGCAGCAAUAUUACGUCUA | -0.692 ± 0.12 | 0.148 ± 0.1 |
| AUGCAGCAAUAUUACGUUUG | -3.45 ± 0.17 | -1.82 ± 0.17 |
| AUGGAGCAAUAUUACGACAC | -1.26 ± 0.32 | -1.08 ± 0.26 |
| AUGGAGCAAUAUUACGACCU | -0.472 ± 0.14 | 0.103 ± 0.18 |
| AUGGAGCAAUAUUACGAUAA | -2.21 ± 0.26 | – |
| AUGGAGCAAUAUUACGCAGU | -3.57 ± 0.37 | -3.17 ± 0.37 |
| AUGGAGCAAUAUUACGCCGG | -2.78 ± 0.46 | – |
| AUGGAGCAAUAUUACGCUUA | -2.53 ± 0.33 | -0.194 ± 0.21 |
| AUGGAGCAAUAUUACGGACU | -1.2 ± 0.18 | -0.626 ± 0.23 |
| AUGGAGCAAUAUUACGGCUC | -2.53 ± 0.45 | – |
| AUGGAGCAAUAUUACGGGUG | -3.75 ± 0.39 | -2.18 ± 0.22 |
| AUGGAGCAAUAUUACGGUAA | – | -1.08 ± 0.16 |
| AUGGAGCAAUAUUACGGUAU | -3.49 ± 0.16 | -1.32 ± 0.1 |
| AUGGAGCAAUAUUACGGUUU | -2.56 ± 0.26 | -2.26 ± 0.21 |
| AUGGAGCAAUAUUACGUACG | -3.38 ± 0.47 | -2.58 ± 0.36 |
| AUGGAGCAAUAUUACGUAGG | -3.11 ± 0.17 | -2.76 ± 0.23 |
| AUGGAGCAAUAUUACGUAUC | -3.83 ± 0.47 | -1.67 ± 0.24 |
| AUGGAGCAAUAUUACGUAUG | -4.28 ± 0.46 | -3.19 ± 0.37 |

| Sequence | self-splicing fitness (ln) (30 °C) | self-splicing fitness (ln) (37 °C) |
| --- | --- | --- |
| AUGGAGCAAUAUUACGUCUU | -2.52 ± 0.16 | -1.81 ± 0.21 |
| AUGGAGCAAUAUUACGUGUA | -3.43 ± 0.26 | -3.04 ± 0.23 |
| AUGUAGCAAUAUUACGACUG | -0.943 ± 0.1 | -0.461 ± 0.1 |
| AUGUAGCAAUAUUACGAGCC | – | -1.05 ± 0.49 |
| AUGUAGCAAUAUUACGAUAU | -0.909 ± 0.11 | 0.222 ± 0.14 |
| AUGUAGCAAUAUUACGAUCG | -2.2 ± 0.15 | -1.12 ± 0.2 |
| AUGUAGCAAUAUUACGCUUG | -1.06 ± 0.14 | -0.51 ± 0.15 |
| AUGUAGCAAUAUUACGGAAG | – | -2.01 ± 0.31 |
| AUGUAGCAAUAUUACGGCGU | -1.14 ± 0.11 | -0.716 ± 0.094 |
| AUGUAGCAAUAUUACGGUAA | -2.15 ± 0.23 | -1.36 ± 0.17 |
| AUGUAGCAAUAUUACGGUGA | -1.57 ± 0.13 | -1.52 ± 0.16 |
| AUGUAGCAAUAUUACGGUGU | -3.04 ± 0.16 | -0.843 ± 0.1 |
| AUGUAGCAAUAUUACGGUUA | -0.747 ± 0.17 | -0.518 ± 0.14 |
| AUGUAGCAAUAUUACGGUUC | -1.72 ± 0.099 | -1.29 ± 0.12 |
| AUGUAGCAAUAUUACGUAUA | -1.99 ± 0.2 | -1.58 ± 0.21 |
| AUGUAGCAAUAUUACGUCCC | -1.73 ± 0.17 | -1.02 ± 0.27 |
| AUGUAGCAAUAUUACGUCUG | -1.94 ± 0.19 | -2.83 ± 0.26 |
| AUGUAGCAAUAUUACGUCUU | -1.62 ± 0.13 | -0.0792 ± 0.13 |
| AUGUAGCAAUAUUACGUUCC | -1.92 ± 0.12 | -0.942 ± 0.17 |
| AUUAAGCAAUAUUACGAAUU | -2.27 ± 0.16 | -1.46 ± 0.21 |
| AUUAAGCAAUAUUACGACGA | -0.668 ± 0.11 | 0.398 ± 0.13 |
| AUUAAGCAAUAUUACGAGCA | -0.83 ± 0.15 | -0.726 ± 0.18 |
| AUUAAGCAAUAUUACGAGGC | -3.18 ± 0.39 | -1.99 ± 0.34 |
| AUUAAGCAAUAUUACGAGUC | -3.25 ± 0.15 | -3.29 ± 0.21 |
| AUUAAGCAAUAUUACGCAGA | -2.88 ± 0.27 | -1.36 ± 0.2 |

| Sequence | self-splicing fitness (ln) (30 °C) | self-splicing fitness (ln) (37 °C) |
| --- | --- | --- |
| AUUAAGCAAUAUUACGCAUG | -1.09 ± 0.08 | -0.301 ± 0.11 |
| AUUAAGCAAUAUUACGGACA | -0.398 ± 0.22 | -0.339 ± 0.2 |
| AUUAAGCAAUAUUACGGCAU | -0.722 ± 0.076 | -0.458 ± 0.094 |
| AUUAAGCAAUAUUACGGCGU | -0.179 ± 0.073 | 0.712 ± 0.097 |
| AUUAAGCAAUAUUACGGUGU | -2.11 ± 0.088 | -0.653 ± 0.11 |
| AUUAAGCAAUAUUACGUCCG | -1.47 ± 0.13 | -0.734 ± 0.17 |
| AUUAAGCAAUAUUACGUCUC | -2.06 ± 0.12 | -1.4 ± 0.19 |
| AUUAAGCAAUAUUACGUGCC | -0.626 ± 0.096 | -1.07 ± 0.14 |
| AUUCAGCAAUAUUACGACAC | -1.45 ± 0.14 | 0.224 ± 0.17 |
| AUUCAGCAAUAUUACGAGCC | -2.87 ± 0.47 | -1.67 ± 0.45 |
| AUUCAGCAAUAUUACGCAGU | -2.18 ± 0.17 | 0.359 ± 0.15 |
| AUUCAGCAAUAUUACGCCGG | -1.07 ± 0.13 | -0.848 ± 0.19 |
| AUUCAGCAAUAUUACGCCUA | -0.46 ± 0.12 | -0.501 ± 0.13 |
| AUUCAGCAAUAUUACGCUGA | -3.06 ± 0.28 | -2.6 ± 0.26 |
| AUUCAGCAAUAUUACGCUUA | -0.623 ± 0.078 | -0.332 ± 0.091 |
| AUUCAGCAAUAUUACGCUUU | -0.755 ± 0.055 | -0.787 ± 0.068 |
| AUUCAGCAAUAUUACGGAAA | -1.03 ± 0.12 | -0.365 ± 0.12 |
| AUUCAGCAAUAUUACGGCAA | -0.94 ± 0.083 | 0.292 ± 0.1 |
| AUUCAGCAAUAUUACGGGUG | -1.71 ± 0.077 | -0.135 ± 0.086 |
| AUUCAGCAAUAUUACGGUAG | -3.49 ± 0.17 | -2.87 ± 0.2 |
| AUUCAGCAAUAUUACGGUUG | -2.89 ± 0.11 | -0.981 ± 0.11 |
| AUUCAGCAAUAUUACGUACC | -0.843 ± 0.061 | -0.514 ± 0.089 |
| AUUCAGCAAUAUUACGUCCC | -1.53 ± 0.13 | -1.3 ± 0.14 |
| AUUCAGCAAUAUUACGUCCG | -0.866 ± 0.2 | -1.33 ± 0.24 |
| AUUCAGCAAUAUUACGUCGG | -3.16 ± 0.17 | -2.28 ± 0.21 |

| Sequence | self-splicing fitness (ln) (30 °C) | self-splicing fitness (ln) (37 °C) |
| --- | --- | --- |
| AUUCAGCAAUAUUACGUCUA | -0.634 ± 0.11 | -0.557 ± 0.1 |
| AUUCAGCAAUAUUACGUGCA | -0.628 ± 0.08 | -0.47 ± 0.083 |
| AUUCAGCAAUAUUACGUUUU | -2.06 ± 0.09 | -0.724 ± 0.091 |
| AUUGAGCAAUAUUACGAAAG | -2.69 ± 0.38 | -1.72 ± 0.29 |
| AUUGAGCAAUAUUACGAAAU | -3.34 ± 0.12 | -2.88 ± 0.16 |
| AUUGAGCAAUAUUACGAGCG | -3.1 ± 0.27 | – |
| AUUGAGCAAUAUUACGAUCA | -1.91 ± 0.16 | -2.07 ± 0.17 |
| AUUGAGCAAUAUUACGCGAA | -3.61 ± 0.37 | -1.28 ± 0.26 |
| AUUGAGCAAUAUUACGGACA | -2.68 ± 0.31 | – |
| AUUGAGCAAUAUUACGGGCU | -4.12 ± 0.36 | -2.25 ± 0.42 |
| AUUGAGCAAUAUUACGGUGU | -1.92 ± 0.15 | -2.31 ± 0.37 |
| AUUGAGCAAUAUUACGGUUG | -3.28 ± 0.31 | -2.48 ± 0.29 |
| AUUGAGCAAUAUUACGUCAG | -2.96 ± 0.2 | -2.3 ± 0.45 |
| AUUGAGCAAUAUUACGUUCC | -1.94 ± 0.23 | -2.1 ± 0.3 |
| AUUUAGCAAUAUUACGAAGA | -2.11 ± 0.4 | -1.36 ± 0.34 |
| AUUUAGCAAUAUUACGACAC | -0.837 ± 0.12 | -0.373 ± 0.14 |
| AUUUAGCAAUAUUACGACGC | -1.8 ± 0.19 | -0.352 ± 0.21 |
| AUUUAGCAAUAUUACGAGCU | -1.88 ± 0.17 | -0.00846 ± 0.15 |
| AUUUAGCAAUAUUACGAUCG | -1.76 ± 0.15 | -0.669 ± 0.12 |
| AUUUAGCAAUAUUACGCCAC | -3.24 ± 0.48 | -1.36 ± 0.35 |
| AUUUAGCAAUAUUACGCCCU | 0.0873 ± 0.082 | 0.37 ± 0.11 |
| AUUUAGCAAUAUUACGGACC | -1.57 ± 0.2 | -1.29 ± 0.27 |
